The values below come from the MegaScale stability set (Tsuboyama et al. 2023).

To fix the notation:
B1: 6NMW (parent)
chain: QGDIVVALYPYDGIHPDDLSFKKGEKMKVLEEHGEWWKAKSLLTKKEGFIPSNYVAKLN
B2: HHH_rd2_0155 (parent)
chain: PPDDERKKAEKAARSGNEEKAREILERLGYSEDEARELAKRLR

Variants of B1 are the subject of one data set. In words: folding stability dG (cDNA display proteolysis); higher = more stable. The note with it: PBS, room temperature.
In the case of N53C, the “folding stability dG” value is 4.41 kcal/mol. Same read-out and setting: then N53R, with 4.09 kcal/mol. On the same count and under the same terms, under N53V stands 2.88 kcal/mol. The same measure, in the same setting: under N53D stands 3.14 kcal/mol. For N53W, the “folding stability dG” value was found to be 4.69 kcal/mol.

With N53F, the “folding stability dG” value came out at 3.06 kcal/mol. On the same count and under the same terms, then N53A, with 4.07 kcal/mol; and N53Y, with 3.12 kcal/mol; and N53K, with 3.93 kcal/mol. The same measure, in the same setting: under N53G stands 3.47 kcal/mol; under N53T, 3.74 kcal/mol.

As to N53S, the “folding stability dG” value was determined as 4.5 kcal/mol. The same measure, in the same setting: then N53I, with 2.98 kcal/mol. On the same count and under the same terms, then K46W, with 1.73 kcal/mol; and K46V, with 2.21 kcal/mol. On the same count and under the same terms, then K46Y, with 2.02 kcal/mol; and K46T, with 1.95 kcal/mol. In the case of L58D, the “folding stability dG” value was determined as 2.77 kcal/mol.

Consider L58M, for which the “folding stability dG” value amounted to 3.45 kcal/mol. On to L58H, for which the “folding stability dG” value stood at 2.43 kcal/mol. In the case of L58R, the “folding stability dG” value is 1.73 kcal/mol. On to L58S, for which the “folding stability dG” value stood at 2.55 kcal/mol. On the same count and under the same terms, under L58V stands 3.89 kcal/mol. Regarding L58P, the “folding stability dG” value came to 2.38 kcal/mol. Still for that read-out and setting: then L58E, with 2.77 kcal/mol. Still for that read-out and setting: then L58T, with 2.86 kcal/mol.

For L58K, the “folding stability dG” value turned out to be 1.65 kcal/mol. L58W: the “folding stability dG” value turned out to be 3.73 kcal/mol. Same read-out and setting: then L58N, with 1.86 kcal/mol. For the variant L58Q, the “folding stability dG” value worked out at 2.38 kcal/mol. For L58I, the “folding stability dG” value was found to be 3.89 kcal/mol. Still for that read-out and setting: then L58A, with 2.62 kcal/mol; and L58G, with 1.84 kcal/mol; and L58Y, with 3.52 kcal/mol. Same read-out and setting: then L58C, with 3.88 kcal/mol; and L58F, with 3.26 kcal/mol. With A56G, the “folding stability dG” value came out at 2.51 kcal/mol. As to A56K, the “folding stability dG” value stood at 4.04 kcal/mol. Still for that read-out and setting: under A56C stands 4.6 kcal/mol. On the same count and under the same terms, under A56L stands 3.61 kcal/mol; under A56P, 0.083 kcal/mol. The same measure, in the same setting: under A56Q stands 3.85 kcal/mol; under A56W, 2.92 kcal/mol; under A56I, 4.4 kcal/mol. On to A56V, for which the “folding stability dG” value amounted to 4.56 kcal/mol.

Consider A56F, for which the “folding stability dG” value turned out to be 3.43 kcal/mol. Same read-out and setting: then A56E, with 3.61 kcal/mol; and A56N, with 2.24 kcal/mol. Same read-out and setting: then A56H, with 3.07 kcal/mol; and A56S, with 3.31 kcal/mol. Same read-out and setting: under A56D stands 2.03 kcal/mol; under A56R, 4.18 kcal/mol; under A56Y, 3.8 kcal/mol. A56T: the “folding stability dG” value turned out to be 3.8 kcal/mol. The same measure, in the same setting: then A56M, with 4.36 kcal/mol; and K57T, with 2.85 kcal/mol. The same measure, in the same setting: under K57R stands 4.37 kcal/mol; under K57H, 3.25 kcal/mol; under K57G, 2.27 kcal/mol. Take K57V: the “folding stability dG” value worked out at 3.39 kcal/mol.

As for K57Q, the “folding stability dG” value stood at 2.68 kcal/mol.

As to K57L, the “folding stability dG” value is 3.61 kcal/mol. On the same count and under the same terms, then K57C, with 3 kcal/mol; and K57F, with 3.96 kcal/mol; and K57W, with 3.87 kcal/mol. On the same count and under the same terms, then K57A, with 3.02 kcal/mol. Turning to K57N, the “folding stability dG” value is 2.44 kcal/mol. Same read-out and setting: then K57E, with 2.02 kcal/mol; and K57P, with 3.63 kcal/mol. Same read-out and setting: under K57I stands 3.23 kcal/mol; under K57S, 2.94 kcal/mol.

Consider K57M, for which the “folding stability dG” value turned out to be 2.85 kcal/mol. Still for that read-out and setting: under K57D stands 1.86 kcal/mol.

Regarding K57Y, the “folding stability dG” value amounted to 4.22 kcal/mol. For Y54F, the “folding stability dG” value was found to be 3.51 kcal/mol. For the variant Y54K, the “folding stability dG” value came out at 2.44 kcal/mol. On the same count and under the same terms, then Y54P, with -0.857 kcal/mol; and Y54V, with 1.29 kcal/mol.

On to Y54D, for which the “folding stability dG” value was -0.435 kcal/mol. Still for that read-out and setting: then Y54T, with 1.16 kcal/mol; and Y54S, with 1.81 kcal/mol. In the case of Y54E, the “folding stability dG” value was 0.003 kcal/mol.

With Y54M, the “folding stability dG” value was 3.17 kcal/mol. Still for that read-out and setting: under Y54N stands 1.04 kcal/mol.

For the variant Y54I, the “folding stability dG” value came out at 2.17 kcal/mol. On the same count and under the same terms, under Y54A stands 2.58 kcal/mol; under Y54Q, 1.44 kcal/mol; under Y54C, 2.85 kcal/mol. On the same count and under the same terms, then Y54G, with 0.76 kcal/mol; and Y54L, with 3.67 kcal/mol; and Y54R, with 2.74 kcal/mol.

In the case of Y54H, the “folding stability dG” value stood at 2.9 kcal/mol. The same measure, in the same setting: under Y54W stands 2.19 kcal/mol.

The variants in the next data set derive from B2. Described as above. The note with it: PBS, room temperature.
Regarding PIDDERKKAEKAARSGNEEKAREILERLGYSEDEARELAKRLR, the “folding stability dG” value came to 2.25 kcal/mol. Still for that read-out and setting: then PRDDERKKAEKAARSGNEEKAREILERLGYSEDEARELAKRLR, with 2.17 kcal/mol. The same measure, in the same setting: under PDDDERKKAEKAARSGNEEKAREILERLGYSEDEARELAKRLR stands 2.21 kcal/mol; under PSDDERKKAEKAARSGNEEKAREILERLGYSEDEARELAKRLR, 1.97 kcal/mol; under PHDDERKKAEKAARSGNEEKAREILERLGYSEDEARELAKRLR, 2.24 kcal/mol. With PGDDERKKAEKAARSGNEEKAREILERLGYSEDEARELAKRLR, the “folding stability dG” value came out at 2.04 kcal/mol. On the same count and under the same terms, under PFDDERKKAEKAARSGNEEKAREILERLGYSEDEARELAKRLR stands 2.35 kcal/mol; under PNDDERKKAEKAARSGNEEKAREILERLGYSEDEARELAKRLR, 2.15 kcal/mol; under PWDDERKKAEKAARSGNEEKAREILERLGYSEDEARELAKRLR, 2.29 kcal/mol. On to PKDDERKKAEKAARSGNEEKAREILERLGYSEDEARELAKRLR, for which the “folding stability dG” value was found to be 2.11 kcal/mol. The same measure, in the same setting: under PQDDERKKAEKAARSGNEEKAREILERLGYSEDEARELAKRLR stands 2.15 kcal/mol. Still for that read-out and setting: under PADDERKKAEKAARSGNEEKAREILERLGYSEDEARELAKRLR stands 2.18 kcal/mol; under PTDDERKKAEKAARSGNEEKAREILERLGYSEDEARELAKRLR, 2.02 kcal/mol. PMDDERKKAEKAARSGNEEKAREILERLGYSEDEARELAKRLR: the “folding stability dG” value amounted to 2.23 kcal/mol.

As to PVDDERKKAEKAARSGNEEKAREILERLGYSEDEARELAKRLR, the “folding stability dG” value is 2.2 kcal/mol. Same read-out and setting: under PCDDERKKAEKAARSGNEEKAREILERLGYSEDEARELAKRLR stands 2.29 kcal/mol. On the same count and under the same terms, then PYDDERKKAEKAARSGNEEKAREILERLGYSEDEARELAKRLR, with 2.29 kcal/mol; and PLDDERKKAEKAARSGNEEKAREILERLGYSEDEARELAKRLR, with 2.14 kcal/mol; and PEDDERKKAEKAARSGNEEKAREILERLGYSEDEARELAKRLR, with 2.24 kcal/mol. On the same count and under the same terms, then PPADERKKAEKAARSGNEEKAREILERLGYSEDEARELAKRLR, with 1.91 kcal/mol; and PPCDERKKAEKAARSGNEEKAREILERLGYSEDEARELAKRLR, with 2.41 kcal/mol; and MPDDERKKAEKAARSGNEEKAREILERLGYSEDEARELAKRLR, with 2.17 kcal/mol.

Turning to TPDDERKKAEKAARSGNEEKAREILERLGYSEDEARELAKRLR, the “folding stability dG” value amounted to 2.36 kcal/mol. Take YPDDERKKAEKAARSGNEEKAREILERLGYSEDEARELAKRLR: the “folding stability dG” value is 2.24 kcal/mol. On the same count and under the same terms, under EPDDERKKAEKAARSGNEEKAREILERLGYSEDEARELAKRLR stands 2.2 kcal/mol. Turning to APDDERKKAEKAARSGNEEKAREILERLGYSEDEARELAKRLR, the “folding stability dG” value came out at 2.22 kcal/mol. In the case of SPDDERKKAEKAARSGNEEKAREILERLGYSEDEARELAKRLR, the “folding stability dG” value came to 2.35 kcal/mol. On the same count and under the same terms, then LPDDERKKAEKAARSGNEEKAREILERLGYSEDEARELAKRLR, with 2.24 kcal/mol; and DPDDERKKAEKAARSGNEEKAREILERLGYSEDEARELAKRLR, with 2.36 kcal/mol; and QPDDERKKAEKAARSGNEEKAREILERLGYSEDEARELAKRLR, with 2.2 kcal/mol. Still for that read-out and setting: then RPDDERKKAEKAARSGNEEKAREILERLGYSEDEARELAKRLR, with 2.21 kcal/mol. Same read-out and setting: then GPDDERKKAEKAARSGNEEKAREILERLGYSEDEARELAKRLR, with 2.26 kcal/mol; and IPDDERKKAEKAARSGNEEKAREILERLGYSEDEARELAKRLR, with 2.12 kcal/mol; and FPDDERKKAEKAARSGNEEKAREILERLGYSEDEARELAKRLR, with 2.22 kcal/mol. As to KPDDERKKAEKAARSGNEEKAREILERLGYSEDEARELAKRLR, the “folding stability dG” value turned out to be 2.14 kcal/mol. The same measure, in the same setting: then VPDDERKKAEKAARSGNEEKAREILERLGYSEDEARELAKRLR, with 2.13 kcal/mol; and HPDDERKKAEKAARSGNEEKAREILERLGYSEDEARELAKRLR, with 2.29 kcal/mol.

Consider NPDDERKKAEKAARSGNEEKAREILERLGYSEDEARELAKRLR, for which the “folding stability dG” value came to 2.41 kcal/mol. On the same count and under the same terms, then WPDDERKKAEKAARSGNEEKAREILERLGYSEDEARELAKRLR, with 2.33 kcal/mol.
